Holding throughout (assay): pull-down binding Z-score (relative to library population); higher = stronger binding
Holding throughout (conditions): RNA library: Library-2

Series [1] concerns TO-3-N3 (biotin conjugate). The method, boiled down: (§1)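 Streptavidin beads bearing 100 pmol of a biotin-conjugated small molecule were incubated for 60 min at 25 °C with 1 μg of heat-folded, Cy5- or Cy3-end-labelled RNA library in phosphate/NaCl/KCl buffer. Hot SDS eluted the RNA that stayed bound after three washes, and this RNA was hybridised for 20 h at 55.5 °C to a DNA barcode microarray. Binding was expressed as a Z-score against the library mean and standard deviation, after subtraction of a beads-only signal and trimmed averaging of barcoded replicate probes.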

A further series has as its system TO-N3 (biotin conjugate). The procedure, abridged: as §1
The test system of series [2] is TO-3-N3-2 (biotin conjugate). The method, boiled down: as §1
Series [3] deals with TO-N3-2 (biotin conjugate). The procedure, abridged: as §1

For “GGCCAGCAGAGGCC [IAV_invivo_PA_3_Motif_7+IAV_invivo_PA_3_Motif_7]”, the “pull-down binding Z-score” value in series [1] is 0.905; with TO-N3 (biotin conjugate) it was 0.703; in series [2] it was 0.0485; in series [3], -0.109.

For “GAUGGCACUUGUGGCUUAGUAGAAGUUGAAAAAGGCGUUUUGCCUCAACUUGAACAGCCCUAUGUGUUCAUC”, the “pull-down binding Z-score” value in series [1] was -0.665; in the series on TO-N3 (biotin conjugate), -0.48; in series [2] it was -0.0725; in series [3] it was 0.432.

Regarding UAUUAUUGCUAUGUCUGCUUUUGCAAUGAUG, the “pull-down binding Z-score” value in series [1] is -1.09; in the series with TO-N3 (biotin conjugate), -1.29; in series [2] it was -0.373; in series [3], -1.18.

Turning to “GGUGACAACAACC [IAV_invivo_M1_M2_7_Motif_11+IAV_invivo_M1_M2_7_Motif_11]”, the “pull-down binding Z-score” value was -0.283 in series [1], -0.366 in the series on TO-N3 (biotin conjugate), -0.31 in series [2] and -0.457 in series [3].

Turning to “GGAGGGCCUUCUACGGAAGGAGUGCC [IAV_invivo_M1_M2_7_Motif_16+IAV_invivo_M1_M2_7_Motif_16]”, the “pull-down binding Z-score” value is 0.296 in series [1], 0.646 in the series on TO-N3 (biotin conjugate), -0.0132 in series [2] and 1.57 in series [3].

Regarding “GAAAAUGACUCUAAAGAGGGUUUUUUC [SHAPE_invitro_SARS-CoV-2_Motif_382]”, the “pull-down binding Z-score” value is -0.0158 in series [1], -0.18 in the series with TO-N3 (biotin conjugate), -0.323 in series [2] and -0.375 in series [3].

In the case of “GCUAGCUCUUGGAGGUUCCGUGGCUAUAAAGAUAACAGAACAUUCUUGGAAUGCUGAUCUUUAUAAGCUCAUGGGACACUUCGCAUGGUGGACAGC”, the “pull-down binding Z-score” value in series [1] came to 0.837; in the series with TO-N3 (biotin conjugate), 0.974; in series [2] it was 0.121; in series [3], 0.936.

As for “GAGGCACUUAAAAUGACCAUGGCCUC [IAV_invivo_NS1_NEP_8_Motif_6+IAV_invivo_NS1_NEP_8_Motif_6]”, the “pull-down binding Z-score” value is 0.555 in series [1], 0.233 in the series with TO-N3 (biotin conjugate), 0.446 in series [2] and -0.305 in series [3].

Consider GCAGUGGCUAACUAACAUCUUUGGCACUGU, for which the “pull-down binding Z-score” value in series [1] is -0.125; with TO-N3 (biotin conjugate), -0.244; in series [2], 0.0264; in series [3] it was -0.175.

With “CAUGUGGUAGUGUUGGUUUUAACAUAGAUUAUGACUGUGUCUCUUUUUGUUACAUGCACCAUAUG”, the “pull-down binding Z-score” value in series [1] is 1.54; with TO-N3 (biotin conjugate) it was 1.48; in series [2], 0.0495; in series [3], -0.00779.

For “CCUGUGAACAGAUUGCUGACUCCCAGCAUCGGUCUCAUAGG [IAV_invivo_M1_M2_7_Motif_10+IAV_invivo_M1_M2_7_Motif_10]”, the “pull-down binding Z-score” value in series [1] is -0.767; in the series with TO-N3 (biotin conjugate), -0.943; in series [2] it was -0.605; in series [3], -0.458.

For “GGAUGAGAGAACUCAUCC [IAV_invivo_NP_5_Motif_6+IAV_invivo_NP_5_Motif_6]”, the “pull-down binding Z-score” value in series [1] is -0.302; in the series on TO-N3 (biotin conjugate), -0.724; in series [2], -0.323; in series [3], -0.939.

“GUCUCGCACCCGCGAGAU [IAV_invivo_PB2_1_Motif_2+IAV_invivo_PB2_1_Motif_2]”: the “pull-down binding Z-score” value in series [1] was 0.583; in the series with TO-N3 (biotin conjugate), 0.279; in series [2] it was -0.362; in series [3], -0.742.

Regarding “AGUGCCAACAGACAAUUAUAUAACCACUUACCCGGGUCAGGGUUUAAAUGGUUACACU”, the “pull-down binding Z-score” value in series [1] was -0.449; in the series on TO-N3 (biotin conjugate) it was -0.462; in series [2], -0.123; in series [3], -0.739.

For “UGAAUUAGACUCAUUCA [DMSMaPseq_invitro_SARS-CoV-2_Motif_447]”, the “pull-down binding Z-score” value is -0.55 in series [1], -0.643 in the series on TO-N3 (biotin conjugate), -0.45 in series [2] and -0.825 in series [3].

Regarding “AUGUACUUGGAUUGGCUGCAAUCAUGCAAUUGUUUUUCAGCUAUUUUGCAGUACAU”, the “pull-down binding Z-score” value was -0.182 in series [1], -0.401 with TO-N3 (biotin conjugate), -0.577 in series [2] and -0.271 in series [3].

On to “GAGAGUGUUCAGACAUUCUU [SHAPE_invivo_SARS-CoV-2_Motif_44]”, for which the “pull-down binding Z-score” value in series [1] is 0.913; in the series on TO-N3 (biotin conjugate) it was 0.718; in series [2], -0.0995; in series [3], -0.51.

Regarding “GUUGAUGAGCCUGAAGAACAUGUCCAAAUUCACACAAUCGACGGUUCAUCCGGAGUUGUUAAUCCAGUAAUGGAACCAAUUUAUGAUGAACCGACGACGAC”, the “pull-down binding Z-score” value is 0.104 in series [1], 0.862 in the series with TO-N3 (biotin conjugate), -0.311 in series [2] and 0.77 in series [3].

With “GUCUUACACCGUGCGGCACAGGCACUAGUACUGAUGUCGUAUACAGGGCUUUUGAC [DMSMaPseq_invitro_SARS-CoV-2_Motif_242]”, the “pull-down binding Z-score” value in series [1] was -0.0912; in the series with TO-N3 (biotin conjugate), 0.173; in series [2] it was 0.0142; in series [3], 0.217.

For the sequence UAAUCAGACAAGGAACUGAUUA, the “pull-down binding Z-score” value in series [1] is -0.426; with TO-N3 (biotin conjugate), -0.836; in series [2], -0.537; in series [3], -0.943.

As to CUGUUUUUCAG, the “pull-down binding Z-score” value is -0.739 in series [1], -1.23 in the series on TO-N3 (biotin conjugate), -0.661 in series [2] and -1.53 in series [3].

With “GGGGCUGAGAAACCAAAGUUUC [IAV_invivo_PA_3_Motif_3+IAV_invivo_PA_3_Motif_3]”, the “pull-down binding Z-score” value came to 0.484 in series [1], 0.788 in the series on TO-N3 (biotin conjugate), 0.214 in series [2] and 0.822 in series [3].

For “GGCGAAUCUGGCGCC [IAV_invivo_NP_5_Motif_7+IAV_invivo_NP_5_Motif_7]”, the “pull-down binding Z-score” value in series [1] was 0.577; in the series on TO-N3 (biotin conjugate) it was 0.493; in series [2] it was -0.231; in series [3], 0.288.

With UGAUGUCACAGAUGUGACUCA, the “pull-down binding Z-score” value in series [1] was -0.773; in the series on TO-N3 (biotin conjugate), -1.09; in series [2], -0.677; in series [3], -0.946.

For “AUUAGAGAAAACAACAGAGUUGUUAUUUCUAGU [DMSMaPseq_invitro_SARS-CoV-2_Motif_378]”, the “pull-down binding Z-score” value in series [1] was 0.0547; in the series with TO-N3 (biotin conjugate), -0.17; in series [2], -0.0987; in series [3] it was -0.787.

In the case of “GGUGGCAAACCUUGUAUCAAAGUAGCCACU [SHAPE_invitro_SARS-CoV-2_Motif_216]”, the “pull-down binding Z-score” value was -0.569 in series [1], -0.798 with TO-N3 (biotin conjugate), -0.373 in series [2] and -0.605 in series [3].

On to UGCAGAUUCAACUUUGAUUGGUGAUUGUGCA, for which the “pull-down binding Z-score” value in series [1] is 0.338; in the series on TO-N3 (biotin conjugate) it was 0.273; in series [2] it was 0.191; in series [3], -0.565.

On to “AAGGAGCUGGUGGCCAUAGUUACGGCGCCGAUCUAAAGUCAUUUGACUUAGGCGACGAGCUUGGCACUGAUCCUU [DMSMaPseq_invitro_SARS-CoV-2_Motif_14]”, for which the “pull-down binding Z-score” value was found to be 0.0504 in series [1], 0.349 in the series on TO-N3 (biotin conjugate), 0.134 in series [2] and 0.492 in series [3].

On to CAUGGAUUUGUCUUCUACAAUUUGCCUAUG, for which the “pull-down binding Z-score” value in series [1] is -0.852; with TO-N3 (biotin conjugate) it was -0.967; in series [2] it was -0.186; in series [3], -0.745.

For the sequence “UAGUUACACGGUGUUUAAACCGUGUUUGUACUA [SHAPE_invivo_SARS-CoV-2_Motif_139]”, the “pull-down binding Z-score” value in series [1] is -0.83; in the series on TO-N3 (biotin conjugate) it was -1.15; in series [2] it was -0.496; in series [3], -1.11.

For the sequence “AUGUUUGUCAAACAUAAGCAU [DMSMaPseq_invitro_SARS-CoV-2_Motif_200]”, the “pull-down binding Z-score” value was -0.651 in series [1], -0.873 in the series with TO-N3 (biotin conjugate), -0.54 in series [2] and -0.806 in series [3].

For “UAGCUUGUUUUGUGCUUGCUG [SHAPE_invivo_SARS-CoV-2_Motif_507]”, the “pull-down binding Z-score” value is 0.134 in series [1], -0.0778 in the series on TO-N3 (biotin conjugate), -0.546 in series [2] and -0.699 in series [3].
